Laboratory results taken from patent publication US20180051081A1 (published 2018).

T1: pig CD47 (pig, UniProt Q9GKE8 19-303)
T1 construct: whole, on cells; also called CD47 on porcine RBCs
T1 sequence (looked up): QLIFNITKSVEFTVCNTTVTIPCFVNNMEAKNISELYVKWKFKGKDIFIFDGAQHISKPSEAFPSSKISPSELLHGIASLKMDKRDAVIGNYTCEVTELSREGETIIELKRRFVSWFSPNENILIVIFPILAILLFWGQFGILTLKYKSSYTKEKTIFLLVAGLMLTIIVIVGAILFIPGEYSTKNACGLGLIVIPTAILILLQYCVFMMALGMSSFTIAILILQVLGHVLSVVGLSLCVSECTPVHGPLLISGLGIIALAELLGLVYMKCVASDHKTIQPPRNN

T2: rat CD47 (rat, UniProt P97829 19-303)
T2 construct: whole, on cells; also called CD47 on rat RBCs
T2 sequence (looked up): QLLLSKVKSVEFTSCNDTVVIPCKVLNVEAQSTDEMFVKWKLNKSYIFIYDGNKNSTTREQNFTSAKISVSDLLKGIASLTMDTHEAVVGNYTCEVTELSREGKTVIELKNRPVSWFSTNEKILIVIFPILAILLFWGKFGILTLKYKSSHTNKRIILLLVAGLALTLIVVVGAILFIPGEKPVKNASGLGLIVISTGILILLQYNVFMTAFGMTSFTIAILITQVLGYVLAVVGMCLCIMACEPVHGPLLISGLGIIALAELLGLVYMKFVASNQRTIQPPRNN

T3: dog CD47 (dog, UniProt A0A8I3PM61 19-310)
T3 construct: also called CD47 on dog RBCs
T3 sequence: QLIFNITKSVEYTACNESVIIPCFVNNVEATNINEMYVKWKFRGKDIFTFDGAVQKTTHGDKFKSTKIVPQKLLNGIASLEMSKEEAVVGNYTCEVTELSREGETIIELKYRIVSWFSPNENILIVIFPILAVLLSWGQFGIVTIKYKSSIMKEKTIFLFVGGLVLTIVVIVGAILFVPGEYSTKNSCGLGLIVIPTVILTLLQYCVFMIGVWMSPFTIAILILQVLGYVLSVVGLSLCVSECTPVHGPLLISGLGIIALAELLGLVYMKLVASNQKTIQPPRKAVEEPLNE

T4: mouse CD47 (mouse, UniProt Q61735 19-303)
T4 construct: whole, on cells; also called CD47 on mouse RBCs; CD47 on 4T1 cells
T4 sequence (looked up): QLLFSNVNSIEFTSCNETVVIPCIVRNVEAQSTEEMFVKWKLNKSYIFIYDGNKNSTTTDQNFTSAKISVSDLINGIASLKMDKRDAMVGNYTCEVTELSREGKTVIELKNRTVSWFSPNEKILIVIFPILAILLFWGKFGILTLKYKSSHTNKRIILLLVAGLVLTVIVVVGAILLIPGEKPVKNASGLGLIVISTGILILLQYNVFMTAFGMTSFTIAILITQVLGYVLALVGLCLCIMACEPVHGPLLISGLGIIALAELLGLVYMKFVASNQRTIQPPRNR

B1: chimeric antibody VxP037-01LC-Pro/VxP037-01HC-Pro (antibody, human IgG1, kappa, V domains shown)
VH: EVQLQQFGAELVKPGASMKLSCKASGYTFTNYYVFWVKQRPGQGLEWIGDINPVNGDTNFNEKFKNKATLTVDKSSTTTYLQLSSLTSEDSAVYYCTRGGYTMDYWGQGTLVTVSS
VL: DVVMTQTPLSLSVSLGDQASISCRSSQSLVHSNGNTYLHWYLQKPGQSPKLLIYKVSYRFSGVPDRFSGSGSGTDFTLKISRVEAEDLGVYFCSQNTHVPRTFGQGTKVEIKR
notes: also called Chimera; VxP037-01LC/VxP037-01HC
B2: Clone 1 (pVxK7b-037-hum01-LC / pVxK7b-037-hum01-HC) (antibody, human IgG1, kappa)
light: DIVMTQTPLSLPVTPGEPASISCRSSQSLVHSNGNTYLHWYQQKPGKAPKLLIYKVSYRFSGVPDRFSGSGSGTDFTLKISRVEAEDVGVYYCSQNTHVPRTFGQGTKVEIKRTVAAPSVFIFPPSDEQLKSGTASVVCLLNNFYPREAKVQWKVDNALQSGNSQESVTEQDSKDSTYSLSSTLTLSKADYEKHKVYACEVTHQGLSSPVTKSFNRGEC
heavy: not shown
notes: also called Cl 1
B3: Clone 20 (pVxK7b-037-hum20-LC / pVxK7b-037-hum20-HC) (antibody, human IgG1, kappa)
light: DIVMTQTPLSLPVTPGEPASISCRSSQSLVHSNGNTYLHWYLQKPGQSPQLLIYKVSYRFSGVPDRFSGSGSGTDFTLKISRVEAEDVGVYYCSQNTHVPRTFGQGTKVEIKRTVAAPSVFIFPPSDEQLKSGTASVVCLLNNFYPREAKVQWKVDNALQSGNSQESVTEQDSKDSTYSLSSTLTLSKADYEKHKVYACEVTHQGLSSPVTKSFNRGEC
heavy: not shown
B4: Clone 19 (pVxK7b-037-hum19-LC / pVxK7b-037-hum19-HC) (antibody, human IgG1, kappa)
light: DVVMTQSPLSLPVTLGQPASISCRSSQSLVHSNGNTYLHWYQQKPGKAPKLLIYKVSYRFSGVPDRFSGSGSGTDFTLKISRVEAEDVGVYYCSQNTHVPRTFGQGTKVEIKRTVAAPSVFIFPPSDEQLKSGTASVVCLLNNFYPREAKVQWKVDNALQSGNSQESVTEQDSKDSTYSLSSTLTLSKADYEKHKVYACEVTHQGLSSPVTKSFNRGEC
heavy: not shown
B5: Clone 13 (pVxK7b-037-hum13-LC / pVxK7b-037-hum13-HC) (antibody, human IgG1, kappa)
light: DIVMTQTPLSLPVTPGEPASISCRSSQSLVHSNGNTYLHWYQQKPGKAPKLLIYKVSYRFSGVPDRFSGSGSGTDFTLKISRVEAEDVGVYYCSQNTHVPRTFGQGTKVEIKRTVAAPSVFIFPPSDEQLKSGTASVVCLLNNFYPREAKVQWKVDNALQSGNSQESVTEQDSKDSTYSLSSTLTLSKADYEKHKVYACEVTHQGLSSPVTKSFNRGEC
heavy: not shown
notes: also called Cl 13
B6: Clone 3 (pVxK7b-037-hum03-LC / pVxK7b-037-hum03-HC) (antibody, human IgG1, kappa)
light: DVVMTQSPLSLPVTLGQPASISCRSSQSLVHSNGNTYLHWYQQKPGKAPKLLIYKVSYRFSGVPDRFSGSGSGTDFTLKISRVEAEDVGVYYCSQNTHVPRTFGQGTKVEIKRTVAAPSVFIFPPSDEQLKSGTASVVCLLNNFYPREAKVQWKVDNALQSGNSQESVTEQDSKDSTYSLSSTLTLSKADYEKHKVYACEVTHQGLSSPVTKSFNRGEC
heavy: not shown
B7: Clone 14 (pVxK7b-037-hum14-LC / pVxK7b-037-hum14-HC) (antibody, human IgG1, kappa)
light: DVVMTQSPLSLPVTLGQPASISCRSSQSLVHSNGNTYLHWYQQKPGKAPKLLIYKVSYRFSGVPDRFSGSGSGTDFTLKISRVEAEDVGVYYCSQNTHVPRTFGQGTKVEIKRTVAAPSVFIFPPSDEQLKSGTASVVCLLNNFYPREAKVQWKVDNALQSGNSQESVTEQDSKDSTYSLSSTLTLSKADYEKHKVYACEVTHQGLSSPVTKSFNRGEC
heavy: not shown
B8: Clone 15 (pVxK7b-037-hum15-LC / pVxK7b-037-hum15-HC) (antibody, human IgG1, kappa, V domains shown)
VH: QVQLQESGPGLVKPSQTLSLTCTVSGYTFTNYYVFWVRQARGQRLEWIGDINPVNGDTNFNEKFKNRLTISKDTSKNQVVLTMTNMDPVDTATYYCARGGYTMDYWGQGTLVTVSS
VL: AIQLTQSPSSLSASVGDRVTITCRSSQSLVHSNGNTYLHWYQQKPGQAPRLLIYKVSYRFSGVPSRFSGSGSGTEFTLTISSLQPDDFATYYCSQNTHVPRTFGQGTKVEIKR
B9: Clone 6 (pVxK7b-037-hum06-LC / pVxK7b-037-hum06-HC) (antibody, human IgG1, kappa, V domains shown)
VH: QVQLQESGPGLVKPSQTLSLTCTVSGYTFTNYYVFWVRQARGQRLEWIGDINPVNGDTNFNEKFKNRLTISKDTSKNQVVLTMTNMDPVDTATYYCARGGYTMDYWGQGTLVTVSS
VL: DIQMTQSPSSLSASVGDRVTITCRSSQSLVHSNGNTYLHWYLQKPGQSPQLLIYKVSYRFSGIPARFSGSGSGTEFTLTISSLQSEDFAVYYCSQNTHVPRTFGQGTKVEIKR
B10: Clone 21 (pVxK7b-037-hum21-LC / pVxK7b-037-hum21-HC) (antibody, human IgG1, kappa, V domains shown)
VH: QVQLQESGPGLVKPSQTLSLTCTVSGYTFTNYYVFWVRQARGQRLEWIGDINPVNGDTNFNEKFKNRLTISKDTSKNQVVLTMTNMDPVDTATYYCARGGYTMDYWGQGTLVTVSS
VL: AIQLTQSPSSLSASVGDRVTITCRSSQSLVHSNGNTYLHWYQQKPGQAPRLLIYKVSYRFSGVPDRFSGSGSGTDFTLKISRVEAEDVGVYYCSQNTHVPRTFGQGTKVEIKR
B11: Clone 2 (pVxK7b-037-hum02-LC / pVxK7b-037-hum02-HC) (antibody, human IgG1, kappa, V domains shown)
VH: QVQLQESGPGLVKPSQTLSLTCTVSGYTFTNYYVFWVRQARGQRLEWIGDINPVNGDTNFNEKFKNRVTISADKSISTAYLQWSSLKASDTAMYYCARGGYTMDYWGQGTLVTVSS
VL: DVVMTQSPLSLPVTLGQPASISCRSSQSLVHSNGNTYLHWYQQKPGQAPRLLIYKVSYRFSGVPSRFSGSGSGTEFTLTISSLQPDDFATYYCSQNTHVPRTFGQGTKVEIKR

Tests used:
pig CD47 = target: T1, pig CD47; assay: FACS, pig RBCs, supernatant 10 ng/ml
Method: (§1) RBCs are incubated for 60 minutes on ice with tissue culture supernatants containing the secreted humanized antibodies at a concentration of 10 ng/ml in a solution of phosphate buffered saline, pH 7.2, 2.5 mM EDTA (PBS+E), or with various concentrations of purified antibodies. Cells are then washed with cold PBS+E, and incubated for an additional hour on ice with FITC labeled donkey anti-human antibody (Jackson Immuno Research Labs, West Grove, Pa.; Catalogue #709-096-149) in PBS+E. Cells are then washed with PBS+E, and antibody binding is analyzed using a BD FACSAria Cell Sorter (Becton Dickinson) or a C6 Accuri Flow Cytometer (Becton Dickinson). Antibody binding is quantitated by comparison of mean fluorescence values relative to that of chimeric antibody >VxP037-01LC (SEQ ID NO:7))/>VxP037-01HC (SEQ ID NO:57). The mean fluorescence value for each antibody is divided by the mean fluorescence value for the chimeric antibody.

rat CD47 = target: T2, rat CD47; assay: FACS, rat RBCs, supernatant 10 ng/ml
Method: as §1

dog CD47 = target: T3, dog CD47; assay: FACS, dog RBCs, supernatant 10 ng/ml
Method: as §1

mouse CD47 = target: T4, mouse CD47; assay: FACS, mouse RBCs, supernatant 10 ng/ml
Method: as §1

human CD47 = target: T5, human CD47 (human, UniProt Q08722 19-323); assay: FACS, human RBCs, supernatant 10 ng/ml
T5 construct: whole, on cells; also called CD47 on human RBCs; CD47 on OV10 cells
Method: as §1

T5 sequence (Q08722 19-323): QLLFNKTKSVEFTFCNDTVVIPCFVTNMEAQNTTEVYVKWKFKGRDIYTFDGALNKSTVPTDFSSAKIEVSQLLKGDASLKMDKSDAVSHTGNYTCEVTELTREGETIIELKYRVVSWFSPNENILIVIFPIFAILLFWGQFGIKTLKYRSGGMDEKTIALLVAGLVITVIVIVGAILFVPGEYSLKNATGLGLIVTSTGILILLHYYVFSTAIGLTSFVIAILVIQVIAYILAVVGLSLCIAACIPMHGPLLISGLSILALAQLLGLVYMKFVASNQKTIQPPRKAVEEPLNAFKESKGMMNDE

Row | Binder | mean fluorescence relative to chimera (pig CD47) | mean fluorescence relative to chimera (rat CD47) | mean fluorescence relative to chimera (dog CD47) | mean fluorescence relative to chimera (mouse CD47) | mean fluorescence relative to chimera (human CD47)
1 | B1 | 1 | 1 | 1 | 1 | 1
2 | B2 | 1.3 | 2.7 | 1 | 1.7 | 1.1
3 | B3 | 1.7 | 1.9 | 1.1 | 1.5 | 1.3
4 | B4 | 1.3 | 2.6 | 1.2 | 1 | 0.7
5 | B5 | 1.4 | 3.1 | 1 | 1.3 | 1.2
6 | B6 | 0.9 | 1.7 | 0.9 | 0.9 | 0.7
7 | B7 | 1.4 | 3.2 | 1.3 | 1.5 | 1.1
8 | B8 | 1.2 | 2.4 | 1.1 | 1.3 | 1
9 | B9 | 1.1 | 2.1 | 1.1 | 1.2 | 0.9
10 | B10 | 1.4 | 2.8 | 1.1 | 1.2 | 1.2
11 | B11 | 1.2 | 2.6 | 1 | 1.2 | 1
